Laboratory results published in the supplement of paper PMC12455559.
± gives the standard deviation of the averaged measurements.

Experiments:
[1] = purified protein yield per well (BCA); higher = higher soluble expression
Outline: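 Candidate enzymes were expressed in E. coli C41(DE3) in 2 mL autoinduction cultures with 100 µg/mL kanamycin, at 37 °C for 2 h and then 18 °C for 40 h. Cells were lysed, and protein was bound to Ni-charged magnetic beads and released by SUMO protease cleavage on an OT-2 robot. The read-out is purified protein yield per well, measured with the Pierce Rapid Gold BCA kit. Values below 25 ug (0.1 mg/mL) are below the detection threshold.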

[2] = melting temperature (DSF); higher = more thermostable
Outline: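 Candidate enzymes were expressed in E. coli C41(DE3), purified on nickel beads and released by SUMO protease cleavage. For differential scanning fluorimetry, 45 μL enzyme (0 to 0.3 mg/mL) was mixed with 5 μL 5X Sypro Orange in sealed PCR plates on a Bio-Rad CFX96 instrument. Fluorescence was read from 25 °C in steps of 0.3 °C per cycle (ramp 0.3 °C/s) for 250 cycles. The read-out is melting temperature.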

[3] = PET hydrolysis, aromatic products released after 48 h (umol product/mg enzyme); higher = more PET depolymerization activity
Outline: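 Amorphous PET film or crystalline PET powder (3.5 mg) in 450 μL of 50 mM NaCitrate (pH 4.5, 5.5), 50 mM NaPhosphate (pH 6.5, 7.5) or glycine (pH 8.5) received 5 μg (50 μL) of candidate enzyme. That enzyme was purified on nickel beads and freed of its tag by SUMO cleavage. After 48 h at 40 or 60 °C in sealed plates without shaking, absorbance of the supernatant at 260 and 280 nm was read against buffer blanks. PET hydrolysis activity is this aromatic product expressed per mg enzyme.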

[4] = substrate: cryPow, 40 °C, pH 4.5
[5] = substrate: cryPow, 40 °C, pH 5.5
[6] = substrate: cryPow, 40 °C, pH 6.5
[7] = substrate: cryPow, 40 °C, pH 7.5
[8] = substrate: cryPow, 60 °C, pH 4.5
[9] = substrate: cryPow, 60 °C, pH 5.5
[10] = substrate: cryPow, 60 °C, pH 6.5
[11] = substrate: cryPow, 60 °C, pH 7.5
[12] = substrate: aFilm, 40 °C, pH 4.5
[13] = substrate: aFilm, 40 °C, pH 5.5
[14] = substrate: aFilm, 40 °C, pH 6.5
[15] = substrate: aFilm, 40 °C, pH 7.5
[16] = substrate: aFilm, 60 °C, pH 4.5
[17] = substrate: aFilm, 60 °C, pH 5.5
[18] = substrate: aFilm, 60 °C, pH 6.5
[19] = substrate: aFilm, 60 °C, pH 7.5

Sequence	purified protein yield per well [1] [µg]	melting temperature [2] [C]	PET hydrolysis [3, 4]	PET hydrolysis [3, 5]	PET hydrolysis [3, 6]	PET hydrolysis [3, 7]	PET hydrolysis [3, 8]	PET hydrolysis [3, 9]	PET hydrolysis [3, 10]	PET hydrolysis [3, 11]	PET hydrolysis [3, 12]	PET hydrolysis [3, 13]	PET hydrolysis [3, 14]	PET hydrolysis [3, 15]	PET hydrolysis [3, 16]	PET hydrolysis [3, 17]	PET hydrolysis [3, 18]	PET hydrolysis [3, 19]	PET hydrolysis ([3]; substrate: cryPow, 40 °C, pH 8.5)	PET hydrolysis ([3]; substrate: cryPow, 60 °C, pH 8.5)
LNPYQRGPNPTDAILEASSGPYATSSISVPSIVSGFGGGRIYYPTTTADGTFGGIAISPGFTATWSSLSWLGPRLASHGFVVIGIETNTIYDQPTSRGQQLLAALDYLVNTSSVRTRVDSSRLAVAGHSMGGGGTLWAANSRPSLQAAIPLAPWNTDKSWSGVRVPTLIVGGQSDTVAPVATHSIPFYTSIPAASEKAYLELRSASHFFPQTVNTTVAVSMVSWLKRYVDDDTRYDPWLCPGPSGLSVSDYRDTCPA [TEP178]	64.5	52	< 3	6	21	29	< 3	< 3	3	4										
LTPSPTPPPTGGTGGCPADAICRGETPGSYSANGPYGSRSYTLSRIQTPGGATVYYPANAEPPFSGLVFTPPYTGSQFMYRAWGPFFASHGIVMVTMDTRTTLDSVDQRAAQQKQVLDALKAENTRSASPLRGKLDTSRLGAVGWSMGGGATWINSAEYSGLKTAMSLAGHNLSALDINARGSNTRVPTLIMNGALDATYLGGLGQSLGVYNNIPRGIPKVIYEVSSAGHFSWGSPTSAGRSVAQIALAFQKTFLDGDTRWATYIRRPSSGVATWRTANLP [ESM175]	285	46	< 3	< 3	< 3	< 3	< 3	< 3	< 3	< 3	< 3	< 3	< 3	< 3	< 3	< 3	< 3	< 3		
MAAANPYQRGPDPTLASVAATNGPFATAQMTVPPGNGFNGGYIYYPTDTSLGTWGAVAIVPGYTALFKNEEAWMGPRLASFGFVVIGIETNSRTDFDTARGTQLLAALDYLTQKSAVRNRVDPGRLGVIGHSMGGGGALVAATQRPSLKAAVGLAPFKPSGNLANDRVPTMFIAGNRDTVVTPSYLDGLYGSLPAATKKAYVQINGADHLFATKPNTVEMRTLIPWLKIFLDNDTRYSQFLCPTLLDKTGVSMYRGTCPLI [TEP109]	285	61.6	28.5 ± 0.71	43 ± 1.4	67 ± 7.1	65.5 ± 3.5	12.5 ± 2.1	47 ± 1.4	23 ± 4.2	5.5 ± 0.71	7 ± 1.4	12.5 ± 2.1	10.5 ± 2.1	< 3	< 3	2 ± 2.8	< 3	< 3		
MAADNPYQRGPNPTSASVAASRGTFATAELSVPRGNGFGGGKIYYPTDTTQGTFGAIAIVPGYTATWAAEGAWMGHWLASFGFVVIGIDTNSRNDNDTARGTQLLAALDYLTQRSSVRGRVDAKRLAVMGHSMGGGGALVAARQRPSLKAAVGLAPFKPSGPPSADRVPTMVIAGQRDGTVTPSYVDGLYRAIPAGTEKAYLEFAGAGHAFPTRPNPLQMRLVIPWLKSFTDHDTRYHQFLCPLKDRTGVTAYRSTCPLVAPGARD [TEP041]	427	54.4	< 3	< 3	3	< 3	< 3	< 3	< 3	< 3	< 3	< 3	< 3	< 3	< 3	< 3	< 3	< 3		
MAAGPAAVAADNPYQRGPDPTPASVAAPNGPFATAQVSVPPGYGFNGGMIYYPTDTSQGTFGAIAISPGYTALFSVELAWMGPRLASQGFVVIGIETNDRNDFDTARGTQLLAALDYLTGQSSVRSRVDPNRLAVAGHSMGGGGAFSAALRRPALKAAVGFTPFSPSQNLTNMQVPALLYSGQYDTVTTPSSVSNLYNGLPSTTEGAYIEAAGLDHSFPTRPNTLLMRTMIPWVKIFLDNDLRYTQFLCPLMDSSGVLQYRNTCPLVPPGLPSPSPTTAPPTTAPPTTAPPPTTAPPPTTAPPPTTAPPPTTNPPAGACSVSYTTNQWPGGFTRDVRITNTGGSVSSWTLAFTAGSNVSLSNGWNGDWSQSGSQITVRNAAWNGSLASGATVSIGFQGTFSGSTLPPLSNITLNGAACAS [DP068]	60	63.4		3	21	36		< 3	7	17									52	20
MAENPYERGPAPTTSSIEASRGSFATSTVTVSRLAVSGFGGGTIYYPTSTTAGTFGAISIAPGFTALQSSIAWLGPRLASQGFVVFTIDTLTTSDQPDSRGRQLLAALDYLTQQSSVRSRIDSSRLGVVGHSMGGGGTLEAARSRPSLQAAIPLTGWNLTKTWSTVRVPTLVVGAQADTVAPVASHSIPFYNSLPSSLDKAYLELRGASHFAPNSSNTTIAKYTLSWLKRFIDNDTRYEQFLCPIPSTSLSISDYRGNCPHNG [TEP182]	290	53.5	< 3	6	11	17.5 ± 2.1	< 3	4	12.5 ± 0.71	15.5 ± 0.71	< 3	< 3	< 3	< 3	< 3	< 3	< 3	< 3		
MAGAAGWPSTASAADNPYQRGPAPTAASIAADRGPFATAQVTVPRGNGFGGGVIYYPTDTSQGTFGAIAIAPGFSTAWSYYAWQGPRLASFGFVVIGIETNTLNDYADARAAQLLAALDYLVNSSSVRDRVDRNRLAVGGHSMGGGGAILAANQRPSLLTAVGQAPYVPDGSLSGIKSPTIIFAGQTDGTVTPQYAQNAYNTIPGSVERAYVEIANEGHGFPAGGGGGNSGAFARTMMIWLKLFVDKDTRYAPFLCPALTNANGISKYMASCPLDPPGGGPTASPTSTPTSTPTSTPTGSPPTGSTSSLRGVASGRCLDVNGASQSNGATVLIWDCNGQSNQKWTSTSASELRVYGGKCLDVNGGGTADGTAVIIWDCNGQNNQKWRFNSDSSITAVGANKCLDVSANGTANGTRVQIWSCTGGGNQKWTRV [ESM024]	86.8	62.8	< 3	< 3	3	4														
MAQTSSCSLMGDVDGSGAIDIVDALLVAQAYVGLNPANYNDACADVDCSDSANIVDALLVAQLYVGLISSFPCEVTPEPTGVSTPTPGGAISIACGSSSAVGSFQADEYYSGGSTYNNSNTVDVSLITDNPPPAALFNNERYGEMSYTIPGFTAGGTYAVTLYFAETYLTSSGSRQFNVSINGTAVLSSFDIYAAAGGQNRAVARAFTTTADSGGQIVIQFTSVTENPKINGISIQAGTAPTPGPTATPGPTSENPYERGPDPSLESVAASRGTFATAELTLSPGNGFGGGFIYYPTDTSLGTWAAVAICPGYTAKFANEETWMGHWLASFGFVVIGIETNTTTDSVDARGTQLLAALDYLTQQSAVRDRVDPDRLMVMGHSAGGGGAFTAAVQRSSLKTVVGLAPASASNMGSLRMPVMIISGQYDDVITPSYINGIWTSLSPTIQRAWIELANNDHLSFTRSNSTEMRVLIPWMKIFLDNDTRYTQFLCPLADSSGISKYENSCPLVP [TEP011]	30.6	64.6	< 3	< 3	< 3	< 3														
MASIVVPGSAAAADNPYQRGPNPTQASVAANRGTFATAETSVGGGNGFGGAKIYYPTDTSQGTFGAIAVVPGYTATWAAEGAWMGHWLSSFGFVVIGIDTNSRNDNDTARGTQLLAALDYLTQRSSVRARVDPNRLAVMGHSMGGGGAISAALRRPTLKAAIGNAPFSPSQNLSTMRVPTALLAGQRDGTVTPSLVSGYYNQIPASTEKMYLELTGAGHGFPTSNNSVATRKWVPWMKIFLDQDTRYQQFLCPLLDNTGISAYRSTCPLIPGDPAPGTTFSLAGSASGKCVDVPGGTQTNGAGLIIWPCRGVTNQRWAQTAAGELRIYDNAKCMDANASGQGARVTINSCHGGASQKWTVNTNGTVTNSASGRCLEAVGTADDAPVVVNTCNGGSGQTWAKRA [TEP164]	192	64	< 3	7	25	31	< 3	< 3	< 3	< 3										
MIATIPDGSAAAAADDNPYQRGPDPTVASVAAQYGPFATAQITVPPGNGFNGGFIYYPTDTSHTYGAVAIVPGYTALFANEEAWMGPRLASFGFVVIGVETNSRNDYDTARGTQLLAALDYLTNSSAVRDRVDRNRLAVIGHSMGGGGSLYAATQRPSLKAAIGLAPFKPSGNLASDTVPTMIIGGINDTTVTPSYLDGLYPTLPAATPGAYLQLANADHLYFTRPNDIELRSQIEWLKIFVDNDARYTQFLCPSIKDTTGIARSNVKCSTIPSGGSTPPSSPPPVPSGPQRILAAQSGRCVDVPNATHNNGTRVQLYDCNGQANQQWTSTSSKQLTVYGNVCLDAAGSGNGAAVQIYSCNGQSNQQWNVNANGTITGVQSGRCLDVWGTGNGQQIQLWDCNGQANQRFSLS [TEP181]	249	50.2	4.5 ± 0.71	12.5 ± 0.71	11 ± 1.4	< 3	< 3	< 3	< 3	< 3	< 3	< 3	< 3	< 3	< 3	< 3	< 3	< 3		
MLGALAIVGGTRPATGADNPYQRGPDPTPASVSAGRGTFATAQVSVGAGNGFGGGVIYYPTDTSQGTFGAIAVVPGYTATWAAEGAWMGHWLASYGFVVIGIDTNTRNDWDTARGTQLLAALDYLTQRSSVRDRVDATRTAVMGHSMGGGGAAYASLQRPSLKTSVGLAPFSPSQNLTTTRVPTMLLSGQNDGTVTPSSVQNLYNGIPAGVEKAYLELTGAGHGFPTSNNPTMMRTVIPWFKIFVDSDTRYTQFLCPLADSNGIRTYQSTCPLVPSTPPTTTTTPTSTTTTSTTSTTPTTTTTTPQPGGACSATYRTVNSWSGGYQGEVTVTAGTSAVTGWTVRWSLGSGQTISQVWNGTLTVDGPTASVRNVSYNGSLGANASTTFGFIGGGTPPTSTLSCTSP [ESM006]	577	63.1	< 3	6.5 ± 0.71	13 ± 1.4	17.5 ± 6.4	< 3	< 3	< 3	< 3	< 3	< 3	< 3	< 3	< 3	< 3	< 3	< 3		
